Laboratory results reported in patent US20220054630A1 (published 2022).

Molecular target: T1, wild-type soluble E2 (sE2), HCV isolate H77C, residues 384-661 (UniProt P27958 384-661)
T1 chain: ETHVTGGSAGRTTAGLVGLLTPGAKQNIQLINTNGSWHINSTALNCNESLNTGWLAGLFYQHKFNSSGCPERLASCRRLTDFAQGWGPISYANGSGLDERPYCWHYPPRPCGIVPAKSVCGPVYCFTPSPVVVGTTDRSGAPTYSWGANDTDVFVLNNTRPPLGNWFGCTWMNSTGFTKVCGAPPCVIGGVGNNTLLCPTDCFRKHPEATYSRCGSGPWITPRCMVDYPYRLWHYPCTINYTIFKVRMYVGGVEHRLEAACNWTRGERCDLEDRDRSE
Assay: BLI

B1: CD81 large extracellular loop (LEL) (receptor)
chain: FVNKDQIAKDVKQFYDQALQQAVVDDDANNAKAVVKTFHETLDCCGSSTLTALTTSVLKNNLCPSGSNIISNLFKEDCHQKIDDLFSGK
  Kd: 22 nM
